The source of these data is paper PMC8880779.

Experiment [1] has as its target Human Aβ(1–42)-HiLyte™-Fluor555 (human) (UniProt P05067). Kind of experiment: other fluorescence titration; kinetics of the fluorescence increase of 10 nM Aβ(1–42) HiLyte Fluor555 after addition of 5 nM CaM (series 2.5, 5, 10 nM for the maximum change); 50 mM Hepes, 100 mM KCl, 50 µM CaCl2, pH 7.05; 24–25 °C; excitation 520 nm, emission 567 nm.
Experiment [2] has the same target. Kind of experiment: other fluorescence titration; reversion of the fluorescence increase: 100 nM non-labelled Aβ(1–42) added after complex formation of 10 nM Aβ(1–42) HiLyte Fluor555 with 5 nM CaM; same buffer, 24–25 °C.
Experiment [3] has the same target. Kind of experiment: other fluorescence titration; kinetics of the fluorescence increase of 10 nM Aβ(1–42) HiLyte Fluor555 after addition of 10 nM CaM (1:1 molar ratio); 50 mM Hepes, 100 mM KCl, 50 µM CaCl2, pH 7.05; 24–25 °C.

In experiment [1], “calmodulin (CaM) (from UniProt P62157 1-149) (natural protein; other documents disagree on this pair)” returned a stoichiometry N (Aβ(1–42) per CaM) of 2. Also, the time needed for the decay to half the increase of fluorescence in experiment [2] was found to be 900 s. Further, in experiment [3], the half-time of complex formation (10 nM CaM) turned out to be 38 s and the rate constant of the kinetic process of complex formation (10 nM CaM) worked out at 0.018 s⁻¹.
